Assay results reported in PMC9172074, “A microfluidic paper analytical device using capture aptamers for the detection of PfLDH in blood matrices”.

Legend:
[1] = target: T1, rPfLDH (recombinant Plasmodium falciparum lactate dehydrogenase) (Plasmodium falciparum, UniProt Q76NM3 1-316); experiment: paper capture, Malstat enzyme activity colorimetry; Zone 1, apparent Kd (fit 23.643 ± 10.806); PBS pH 7.4 (10 mM Na2HPO4, 1.8 mM KH2PO4 [printed KH2HPO4], 2.7 mM KCl, 137 mM NaCl), room temperature, 30 min; pL1: 20 mM Tris, 50 mM NaCl, 5 mM KCl, 5 mM MgCl2, 0.01% Tween 20, pH 8.0; conditions: protein: recombinant; chain copies: 4; label: 5' biotin
[2] = target: T1, rPfLDH (recombinant Plasmodium …); experiment: paper capture, Malstat enzyme activity colorimetry; Zone 3, apparent Kd; PBS pH 7.4 (10 mM Na2HPO4, 1.8 mM KH2PO4 [printed KH2HPO4], 2.7 mM KCl, 137 mM NaCl), room temperature, 30 min; pL1: 20 mM Tris, 50 mM NaCl, 5 mM KCl, 5 mM MgCl2, 0.01% Tween 20, pH 8.0; conditions: protein: recombinant; chain copies: 4; label: 5' biotin

B1: rLDH7 (ssDNA)
DNA: GCCTGTTGTGAGCCTCCTAACCCAGAATAGGGACTGCTCGGGATTGCGGATGAGTCTGGGTGGGACATGGCATGCTTATTCTTGTCTCCC
B1 was tested, and the Kd [1] was 24 ± 11 nM and the Kd [2] was 11.4 ± 5 nM.
